T1: Ven-SH3 (Gads, aa.256-322) (mouse, UniProt O89100 256-322)
T1 sequence (looked up): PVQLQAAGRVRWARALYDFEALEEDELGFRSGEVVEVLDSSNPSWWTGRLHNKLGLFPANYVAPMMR


molecular target: T1, Ven-SH3 (Gads, aa.256-322); test: FRET or BRET

Binder | Kd [µM]
PAPSIDRSTKPPL (peptide, UniProt Q13094 231-243, looked up) [Cer-SLP-76, aa.231-243] | 0.8
PAPSIKRSTKPPL (peptide, UniProt Q13094 231-243, looked up) [Cer-SLP-76 (D236K), aa.231-243] | 7
PAPSIDRSTRPPL (peptide, UniProt Q13094 231-243, looked up) [Cer-SLP-76 (K240R), aa.231-243] | 24
EPPPVDRNLKPDR (peptide, UniProt Q13480 515-527, looked up) [Cer-Gab1, aa.515-527] | 1
NVPQIDRTKKPAV (peptide, UniProt P40818 403-415, looked up) [Cer-USP8, aa.403-415] | 4

Reference: paper PMC4814300 (Cell reports, 2016)
